Source: patent publication US20240182561A1 (Regeneron, published 2024)
Like-named read-outs stand apart in the source and are kept apart here.

T1: mouse CACNG1 expressed on cells (mouse, UniProt O70578 1-223)
T1 sequence (looked up): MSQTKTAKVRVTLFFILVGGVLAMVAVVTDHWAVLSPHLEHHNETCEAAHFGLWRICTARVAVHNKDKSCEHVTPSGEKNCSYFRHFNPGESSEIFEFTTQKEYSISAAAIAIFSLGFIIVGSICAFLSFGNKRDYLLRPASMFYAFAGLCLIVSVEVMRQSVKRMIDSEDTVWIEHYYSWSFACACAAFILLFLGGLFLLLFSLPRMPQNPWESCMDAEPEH


How the values were obtained:
[1] = target: T2, human CACNG1 expressed on cells (human, UniProt Q06432 1-222); experiment: cell-based or functional assay
T2 sequence (Q06432 whole entry): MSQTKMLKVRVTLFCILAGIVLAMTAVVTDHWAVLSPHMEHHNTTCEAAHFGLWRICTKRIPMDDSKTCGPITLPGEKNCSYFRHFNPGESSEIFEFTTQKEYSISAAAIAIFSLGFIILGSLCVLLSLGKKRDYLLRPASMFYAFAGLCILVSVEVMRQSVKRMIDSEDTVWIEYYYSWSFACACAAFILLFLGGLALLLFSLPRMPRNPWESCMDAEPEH

[2] = target: T2, human CACNG1 expressed on cells; experiment: cell-based or functional assay; remark: listed apart in the source
[3] = target: T2, human CACNG1 expressed on cells; experiment: cell-based or functional assay; remark: listed apart in the source
[4] = target: T2, human CACNG1 expressed on cells; experiment: cell-based or functional assay; remark: listed apart in the source
[5] = target: T1, mouse CACNG1 expressed on cells; experiment: cell-based or functional assay
[6] = target: T2, human CACNG1 expressed on cells; experiment: cell-based or functional assay; remark: listed apart in the source
[7] = target: T2, human CACNG1 expressed on cells; experiment: cell-based or functional assay; remark: listed apart in the source
[8] = target: T2, human CACNG1 expressed on cells; experiment: cell-based or functional assay; remark: listed apart in the source
[9] = target: T2, human CACNG1 expressed on cells; experiment: imaging cell binding, HEK293/hCACNG1
Protocol: (§1) HuSKM were seeded in collagen-coated 96-well plates (Greiner Bio-One #655956) at 8,500 cells/well and grown for 24 hours. The growth media was changed to MyoTonic Differentiation Media (Cook Myosite Cat #MD-5555) and replaced every 2 days. Myotubes were assayed after 6 days of differentiation. C2C12 mouse myoblasts were maintained in DMEM with 10% FBS and 1% penicillin-streptomycin supplement and grown in a 37° C. incubator with 5% CO₂. C2C12 cells were seeded in collagen-coated 96-well plates (Greiner Bio-One #655956) at 10,000 cells/well for the cell binding assay and 5,000 cells/well for the cell killing assay. After 24 hours, growth media was replaced with differentiation media (DMEM with 2% horse serum) and placed in a 37° C. incubator with 7.5% CO₂. C2C12 myotubes were assayed after 3 days of differentiation. HEK293/hCACNG1, HEK293/mCACNG1, and HEK293 cells were seeded at 10,000 cells (cell binding assay) or 2,000 (cell killing assay) per well in 96-well black collagen coated plates (Greiner Bio-One, cat #655956) in complete growth media and grown overnight at 37° C. in 5% CO₂.
(§2) Relative binding of anti-CACNG1 antibodies was assessed across the entire panel of cell lines via imaging analysis. […] After one wash with antibody dilution buffer, samples were fixed in CytoFix (BD Biosciences, Cat #554655) diluted 1:1 in PBS and supplemented with a 1:2000 dilution of Hoechst 33342 (Thermo, Cat #H1399) for 20 minutes on ice. Images were acquired with a 10× objective on the Opera Phenix (Perkin Elmer) and relative fluorescence units (RFU) was determined using Harmony software (Perkin Elmer).

[10] = target: T1, mouse CACNG1 expressed on cells; experiment: imaging cell binding, HEK293/mCACNG1
Protocol: as §1, §2

[11] = target: T2, human CACNG1 expressed on cells; experiment: imaging cell binding, HuSKM myotubes
Protocol: as §1, §2

[12] = target: T1, mouse CACNG1 expressed on cells; experiment: imaging cell binding, C2C12 mouse myotubes
Protocol: as §1, §2

[13] = target: T2, human CACNG1 expressed on cells; experiment: live myotubes (human myotubes per paragraph 866) incubated with antibody, detection with Alexa 647-conjugated F(ab')2 secondary antibody, Hoechst counterstain, fluorescence imaging; titration 100 to 0.02 nM and 0 nM
[14] = target: T2, human CACNG1 expressed on cells; experiment: cell-based or functional assay; remark: listed apart in the source
[15] = target: T3, nanodisc embedded human CACNG1 expressed with a C-terminal PADRE-Flag-His tag (human, UniProt Q06432 1-222); experiment: SPR, anti-His-captured nanodisc, 25 C
T3 construct: Captured on an anti-His Biacore surface; also called human CACNG1 nanodisc; CACNG1 nanodisc; not shown: C-terminal tag
T3 sequence (Q06432 whole entry): as above
Protocol: Equilibrium dissociation constants (KD values) for nanodisc embedded human CACNG1 expressed with a C-terminal […] tag (human CACNG1 nanodisc; concentration 0.82 mg/ml) binding to purified anti-CACNG1 antibodies were determined using a real-time surface plasmon resonance biosensor technology with a Biacore T200 instrument. The CM5 Biacore sensor surface was derivatized by amine coupling with a monoclonal mouse anti-His antibody (Cytiva; Marlborough, MA). All Biacore binding studies were performed in a buffer composed of 0.01M HEPES, 0.15M NaCl, 1 mM CaCl₂, 0.5 mM MgCl₂, pH 7.4 (HBS-N++ running buffer). Different concentrations of anti-CACNG1 antibodies (ranging from 300 nM to 12 nM in 5-fold serial dilutions) prepared in HBS-N++ running buffer were injected over the captured human CACNG1 nanodisc at a flow rate of 30 μL/minute. Antibody association was monitored for 2 minutes while dissociation was monitored in HBS-N++ running buffer for 5 minutes. At the end of each cycle, the human CACNG1 nanodisc capture surface was regenerated using three 10 second injections of 10 mM Gly pH1.5. All binding kinetics experiments were performed at 25° C.
The specific SPR-Biacore sensorgrams were obtained by a double referencing procedure. The double referencing was performed by first subtracting the signal of each injection over a reference surface (anti-His) from the signal over the experimental surface (anti-His captured human CACNG1 nanodisc) thereby removing contributions from refractive index changes. In addition, running buffer injections were performed to allow subtraction of the signal changes resulting from the dissociation of captured antibodies from the coupled anti-His surface. Kinetic association (kₐ) and dissociation ([…]) rate constants were determined by fitting the real-time sensorgrams to a 1:1 binding model using Scrubber v2.0c curve fitting software. Binding dissociation equilibrium constants (KD) and dissociative half-lives (t %) were calculated from the kinetic rate constants as: […]

[16] = target: T2, human CACNG1 expressed on cells; experiment: imaging cell binding, HEK293/hCACNG1; remark: listed apart in the source
Protocol: as §1, §2

[17] = target: T2, human CACNG1 expressed on cells; experiment: imaging cell binding, HuSKM myotubes; remark: listed apart in the source
Protocol: as §1, §2

[18] = target: T1, mouse CACNG1 expressed on cells; experiment: imaging cell binding, C2C12 mouse myotubes; remark: listed apart in the source
Protocol: as §1, §2

Row | Binder | % KILL, indirect cell killing, HEK293/hCACNG1 [4] [%] | % KILL, indirect cell killing, HuSKM [4] [%] | EC50/IC50, indirect cell killing, HEK293/hCACNG1 [4] [nM] | EC50/IC50, indirect cell killing, HuSKM [4] [nM] | % KILL, indirect cell killing, HEK293/mCACNG1 [5] [%] | EC50/IC50, indirect cell killing, HEK293/mCACNG1 [5] [nM] | EC50 [11] [nM] | S/N [11] [fold] | EC50/IC50, indirect cell killing, HuSKM [14] [nM] | Kd [15] [nM] | koff [15] [s⁻¹] | kon [15] [M⁻¹ s⁻¹] | mAb bound at 300 nM [15] [RU] | t1/2 [15] [min] | further results
1 | REGN14573-M3004 (antibody, human IgG1, lambda, N297Q, N297Q; DHT linker-payload M3004 conjugated, DAR about 4) heavy chain: not shown light chain: QSVLTQPPSVSAAPGQKVTISCSGSSSNIGNNYVSWYQQLPGTAPKLLIYDNNKRPSGIPDRFSGSKSGTSATLGITGLQTGDEADYYCGTWDLSLSFNWVFGGGTKLTVLGQPKAAPSVTLFPPSSEELQANKATLVCLISDFYPGAVTVAWKADSSPVKAGVETTTPSKQSNNKYAASSYLSLTPEQWKSHRSYSCQVTHEGSTVEKTVAPTECS |  |  |  |  |  |  |  |  |  |  |  |  |  |  | EC50 of androgen receptor luciferase reporter activation (RLU) by the DHT conjugate REGN14573-M3004 in hCACNG1.AR.Luc LNCaP cells, 24 hours; concentration adjusted for DAR [1]: 214 nM; EC50 of androgen receptor luciferase reporter activation (RLU) by the DHT conjugate REGN14573-M3004 in hCACNG1.AR.Luc LNCaP cells, 48 hours; concentration adjusted for DAR [2]: 213 nM; EC50 of androgen receptor luciferase reporter activation (RLU) by the DHT conjugate REGN14573-M3004 in hCACNG1.AR.Luc LNCaP cells, 72 hours; concentration adjusted for DAR [3]: 185 nM
2 | REGN5972 (antibody, V domains shown, also called H4H31265P2/REGN5972; CACNG1 hIgG1 antibody) VH: QVQLVESGGGVVQPGRSLRLSCTASGFTFRSYGMHWVRQAPGKGLEWVSVIWIDGNNIYYADSVKGRFTISRDNSKNTLYLQMDSLRAEDTAVYYCARRLAITSAAPFDYWGQGTLVTVSS VL: not shown | 95.4 | 97.4 | 0.00139 | 0.585 | 11 | > 1 | 2.9 | 313 |  |  |  |  |  |  | % KILL, indirect cell killing, C2C12 [5]: 0%; EC50/IC50, indirect cell killing, C2C12 [5]: > 10 nM; EC50 of androgen receptor luciferase reporter activation (RLU) by the DHT conjugate REGN5972-M3004 in hCACNG1.AR.Luc LNCaP cells, 24 hours; concentration adjusted for DAR [6]: 19 nM; EC50 of androgen receptor luciferase reporter activation (RLU) by the DHT conjugate REGN5972-M3004 in hCACNG1.AR.Luc LNCaP cells, 48 hours; concentration adjusted for DAR [7]: 6.49 nM; EC50 of androgen receptor luciferase reporter activation (RLU) by the DHT conjugate REGN5972-M3004 in hCACNG1.AR.Luc LNCaP cells, 72 hours; concentration adjusted for DAR [8]: 7.79 nM; EC50 [9]: 6.6 nM; S/N [9]: 172 fold; EC50 [10]: > 100 nM; S/N [10]: 5.3 fold; S/N [12]: 1.6 fold
3 | REGN7854 (antibody, human IgG4 S228P, kappa, V domains shown, also called CACNG1 Ab) VH: QVQLVQSGAEVKKPGASVKVSCKASGYAFTTYGITWVRQAPGQGLEWMGWISAYNGNTNYAEKVQGRFTMTTDTSTNTAYMELRSLRSDDTAVYFCARKGHYGSGTYYNPFGFDFWGQGTMVTVSS VL: EIVLTQSPGTLSLSPGERATLSCRASQSVSSSYLAWYQQKPGQAPRLLIYGASSRATGIPDRFSGSGSGTDFTLTISRLEPEDFALYFCQQYYGSPWTFGQGTKVEIKR |  |  |  |  |  |  |  |  |  |  |  |  |  |  | binding result [13]: binds
4 | REGN9908 (antibody, mouse IgG2b, V domains shown, mIgG2b) VH: EVQLLESGGGLAQPGGSLRLSCAASGFTFSSYAMSWVRQAPGKGLEWVSSVSGSGGTTYYAASVKGRFTVSRDNSKKTLYLQMNSLRAEDTAVYYCGKGGYCSSSGCRHYGMDVWGQGTTVTVSA VL: QSVLTQPPSASGTPGQRVAISCSGSNSNIGNNYLYWYQQIPGTTPKLLIYRNNQRPSGVPDRFSASKSGTSASLAISGLRSGDEADYYCAAWDDSLSGYVFGTGTKVTVLG |  |  |  |  |  |  | 14.8 | 164 | 0.0859 | 9.57 | 0.00402 | 419000 | 21 | 2.9 | 
5 | REGN9909 (antibody, mouse IgG2a, kappa, V domains shown, mIgG2a) VH: EVQLLESGGGLVQPGGSLRLSCAASGFTFNNYGMSWVRQGPGKGLEWVSSISGSGGTTFYADSVKGRFTISRDNSKNTLYLQMNSLRAEDTAVYYCGKGGYCSSSGCRHYGMDVWGQGTTVTVSS VL: QSVLTQPPSASGTPGQRVTISCSGSSSNIGNNYIYWYQRLPGTTPKLLIYRNNQRPSGVPDRFSGSKSGTSASLAISGLRSEDEADYYCAAWDDTLSGYVFGTGTKVTVLR | 95.2 | 99.5 | 0.00235 | 0.0183 | 88.5 | 0.0612 | 6.51 | 141 | 0.00968 | 4.15 | 0.00137 | 331000 | 22 | 8.4 | EC50 [16]: 1.6 nM; S/N [16]: 5.4 fold; EC50 [17]: 14 nM; S/N [17]: 171 fold; EC50 [18]: 8.3 nM; S/N [18]: 4.2 fold
